Series [1] concerns LrAgo (Limnothrix rosea IAM M-220). Kind of series: competition.
For series [2] the test system is unchanged. Kind of series: double-filter binding. The following applies: 5'-phosphate.

As for “GTTAGACTTTAAGTCAAT [18 nt 5'-OH guide DNA (G-guide)]”, the Kd (as a rule, the concentration at which binding is half-saturated) in series [1] (5'-hydroxyl) turned out to be 0.0456 nM.
“GTTAGACTTTAAGTCAAT [18 nt 5'-P guide DNA (G-guide)]”: the Kd came to 0.0333 nM in series [1] (5'-phosphate) and 0.0348 nM in series [2].

For the origin of these results see article PMC6582412.
